Laboratory results taken from patent US20060110388A1 (APPLIED MOLECULAR EVOLUTION, published 2006).
Values joined by “and” are separate entries in the source; they are usually repeats but may differ in a detail not shown here. Identical values can stand only once.

Tests used:
β Amyloid peptide 1-40 [1] = biological target: T1, β Amyloid peptide 1-40 (human, UniProt P05067 672-711); test: KinExA, mAb; against m266
T1 construct: domain: β Amyloid peptide 1-40; Biotinylated peptide 1-40 (Biosource) on avidin Sepharose only captured free antibody in KinExA; also called Aβ 1-40; human Aβ (1-40)
T1 sequence (P05067 672-711 limits assumed): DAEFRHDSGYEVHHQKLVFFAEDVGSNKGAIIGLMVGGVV
Description: (§1) Typical 1× concentrations were 10 pM of antibody active sites (0.75 ng/mL) and an upper antigen concentration of 100 pM (0.43 ng/mL). The samples were then allowed to equilibrate for 24-72 hours at room temperature. A KinExA™ instrument (Sapidyne) and standard KD run file were then used to determine the KD of the system. Briefly, the KinExA™ flow cell was charged with the β Amyloid peptide coated beads and washed with PBSA. For the first sample, free antibody in solution was captured by the beads washed with PBSA and detected using 1:250 Goat anti-human Cy5 (Jackson Immunochemicals) in PBSA. The flow cell was then flushed, re-charged with beads and the next sample analyzed. The process was repeated until all 12 samples were analyzed.

β Amyloid peptide 1-40 [2] = biological target: T1, β Amyloid peptide 1-40; test: KinExA, mAb
Description: as §1

β Amyloid peptide 1-40 [3] = biological target: T1, β Amyloid peptide 1-40; test: KinExA, mAb, equilibration 16 h
Description: as §1, with “The samples were then allowed to equilibrate for 24-72 hours at room temperature.” left out
(§2) For KinExA™ kₒₙ and koff measurements, antigen and antibody were prepared as described above. Antigen and antibody samples at 2× active concentration were prepared in PBSA with 0.2% BSA. Samples were mixed 1:1 and the timing for the experiment started. Typical 1× concentrations were 1 nM antibody active site concentration ([…]) and 2 nM antigen (8.6 ng/mL). A KinExA™ instrument (Sapidyne) and a kineticsdirect run file were used to follow the reaction. Time for each measurement was determined using the manufacturer's instructions. Free antibody remaining in the reaction was captured using β amyloid coated beads packed into the flow cell washed with PBSA and detected at each time point using 1:250 Goat anti-human Cy5 (Jackson) in PBSA. The flow cell was then flushed and recharged with beads for the next measurement, the process continued until a complete decay curve obtained. The data was analyzed using the KinExA™ Inject software.

β Amyloid peptide 1-40 [4] = biological target: T1, β Amyloid peptide 1-40; test: KinExA, mAb; against m266; remark: listed apart in the source
Description: as §2
(§3) Association rate constants (kₒₙ) of m266 and antibodies of the present invention with Aβ were determined by KinExA™, using methods as described above in Example 1. The results of two separate kₒₙ determinations by KinExA™, in which separate preparations of antibodies were used, are provided in Tables 7 and 8.

β Amyloid peptide 1-40 [5] = biological target: T1, β Amyloid peptide 1-40; test: BIAcore, mAb captured, Aβ 1-40 injected, first set of preparations
Description: (§4) BIAcore™ is an automated biosensor system that measures molecular interactions (Karlsson, et al. (1991) J. Immunol. Methods 145: 229-240). BIAcore™ analyses described herein were carried out at 25° C. In these experiments, antibody was immobilized at low density on a BIAcore™ CM5 or B1 chip. For the m266 antibody goat anti-mouse Fc (Jackson Immunoresearch) immobilized on CM5 in flow cell 2 was used for measuring binding constants. Goat anti-mouse was used as control antibody in flow cell 1. For the humanized antibodies, protein A or protein A/G was immobilized via amine coupling to flow cells 1 and 2 of a B1 or CM5 sensor chip.
(§5) Antibody was then captured only to flow cell 2 at desired levels (usually a 10-60 second injection of antibody) and allowed to stabilize for 5 minutes. For these experiments, a fresh aliquot of Aβ 1-40 was thawed and then diluted 1:10 in HBS-EP running buffer. The 1:10 dilution was used to make up a 200 nM Aβ solution which was serially diluted (1:2 dilutions) to a lowest concentration of 6.25 nM. Each concentration was injected over the surface for 5 minutes at a flow rate of 50 μl/min (250 μl total). The Aβ and antibody were eluted from both flow cells with a 40s injection of glycine pH 1.5. The signal is allowed to stabilize for 2 minutes before the next cycle. The data from flow cell 1 is subtracted from flow cell 2 to account for any bulk shifts due to buffer differences or non-specific binding to the sensor chip or Protein A. The various concentrations were injected randomly and each concentration was run in duplicate. Two control runs of buffer only were used to control for any dissociation of antibody from the capture surface. The data was analyzed using the Biaevalution™ software. A 1:1 model with mass transfer and a local Rmax was used as the best fit for the data.
Concentrations of human Aβ (1-40) from 200 nM to 1.6 nM in 2-fold serial dilution were used to obtain on-rate constant. […]

β Amyloid peptide 1-40 [6] = biological target: T1, β Amyloid peptide 1-40; test: KinExA, mAb; remark: listed apart in the source
Description: as §2, §3

β Amyloid peptide 1-40 [7] = biological target: T1, β Amyloid peptide 1-40; test: BIAcore; against m266
Description: as §4, §5
Concentrations of human Aβ (1-40) from 200 nM to 1.6 nM in 2-fold serial dilution were used to obtain on-rate constant. The upper half of Table 6 represents determinations made with a first set of antibody preparations, while the lower half represents determinations made with a second set of antibody preparations

β Amyloid peptide 1-40 [8] = biological target: T1, β Amyloid peptide 1-40; test: KinExA, mAb, average of the experiments
Description: as §2, §3

β Amyloid peptide 1-40 [9] = biological target: T1, β Amyloid peptide 1-40; test: KinExA, mAb, average of the experiments; remark: listed apart in the source
Description: as §1

β Amyloid peptide 1-40 [10] = biological target: T1, β Amyloid peptide 1-40; test: KinExA, mAb, single experiment, separate antibody preparation
Description: as §2
(§6) Association rate constants (kₒₙ) of m266 and antibodies of the present invention with Aβ were determined by KinExA™, using methods as described above in Example 1. […]
(§7) ^aNumbers in bold are the averages calculated from individual experiments. ^bA separate preparation of antibodies was used for these experiments. ^cA separate preparation of antigen was used for these experiments.

β Amyloid peptide 1-40 [11] = biological target: T1, β Amyloid peptide 1-40; test: KinExA, mAb; m266 is the reference
β Amyloid peptide 1-40 [12] = biological target: T1, β Amyloid peptide 1-40; test: KinExA, mAb, single experiment
Description: as §1

β Amyloid peptide 1-40 [13] = biological target: T1, β Amyloid peptide 1-40; test: KinExA, mAb, single experiment, separate antigen preparation
Description: as §2, §6, §7

β Amyloid peptide 1-40 [14] = biological target: T1, β Amyloid peptide 1-40; test: KinExA, mAb, single experiment, separate antibody and antigen preparations
Description: as §2, §6, §7

β Amyloid peptide 1-40 [15] = biological target: T1, β Amyloid peptide 1-40; test: KinExA, mAb; m266 is the reference; remark: listed apart in the source
Description: as §2, §3

β Amyloid peptide 1-40 [16] = biological target: T1, β Amyloid peptide 1-40; test: KinExA, mAb, single experiment; remark: listed apart in the source
Description: as §2, §3

β Amyloid peptide 1-40 [17] = biological target: T1, β Amyloid peptide 1-40; test: BIAcore, mAb captured by anti-mouse Fc, Aβ 1-40 injected, first set of preparations
Description: as §4
Antibody was then captured only to flow cell 2 at desired levels (usually a 10-60 second injection of antibody) and allowed to stabilize for 5 minutes. For these experiments, a fresh aliquot of Aβ 1-40 was thawed and then diluted 1:10 in HBS-EP running buffer. The 1:10 dilution was used to make up a 200 nM Aβ solution which was serially diluted (1:2 dilutions) to a lowest concentration of 6.25 nM. Each concentration was injected over the surface for 5 minutes at a flow rate of 50 μl/min (250 μl total). The Aβ and antibody were eluted from both flow cells with a 40s injection of glycine pH 1.5. The signal is allowed to stabilize for 2 minutes before the next cycle. […] The data was analyzed using the Biaevalution™ software. […]

β Amyloid peptide 1-40 [18] = biological target: T1, β Amyloid peptide 1-40; test: KinExA, mAb, average of the experiments; remark: listed apart in the source
Description: as §2, §3

β Amyloid peptide 1-40 [19] = biological target: T1, β Amyloid peptide 1-40; test: BIAcore; m266 is the reference
β Amyloid peptide 1-40 [20] = biological target: T1, β Amyloid peptide 1-40; test: KinExA, mAb, single experiment; remark: listed apart in the source
Description: as §2, §3

B1: 1B7 monoclonal antibody (IgG1) (antibody, V domains shown)
VH: EVQLVESGGGLVKPGGSLRLSCAASGFTFSRYSMSWVRQAPGKGLEWVGQINSRGNSTYYPDTVKGRFTISRDDSKNTLYLQMNSLKTEDTAVYYCTTGDFWGQGTLVTVSS
VL: DIVMTQTPLSLSVTPGQPASISCRSSQSLIYSDGNAYLHWYLQKPGQSPQLLIYKVSNRFSGVPDRFSGSGSGTDFTLKISRVEAEDVGVYYCSQSTHSPWTFGGGTKVEIK
**Q.** For B1, which “Fold increase in affinity” value (β Amyloid peptide 1-40 [1]) is on record?
**A.** 0.11 fold

**Q.** And the Kd (β Amyloid peptide 1-40 [2])?
**A.** 0.674 nM

**Q.** What about the Kd (β Amyloid peptide 1-40 [3]) of the same binder?
**A.** 0.122 nM

**Q.** What about the koff (β Amyloid peptide 1-40 [3]) of the same binder?
**A.** 0.000214 s⁻¹

**Q.** And the kon (β Amyloid peptide 1-40 [3])?
**A.** 1.76e+06 M⁻¹ s⁻¹

**Q.** What about the “Fold increase in kon” value (β Amyloid peptide 1-40 [4]) of the same binder?
**A.** 3 fold

**Q.** What about the kon (β Amyloid peptide 1-40 [5]) of the same binder?
**A.** 590000 M⁻¹ s⁻¹

**Q.** And the kon (β Amyloid peptide 1-40 [6])?
**A.** 630000 M⁻¹ s⁻¹

**Q.** And the “Fold Increase (kon)” value (β Amyloid peptide 1-40 [7])?
**A.** 5 fold

B2: m266 monoclonal antibody (antibody, V domains shown)
VH: EVKLVESGGGLVQPGGSLKLSCAVSGFTFSRYSMSWVRQTPEKRLELVAQINSVGNSTYYPDTVKGRFTISRDNAEYTLSLQMSGLRSDDTATYYCASGDYWGQGTTLTVSS
VL: DVVMTQTPLSLPVSLGDQASISCRSSQSLIYSDGNAYLHWFLQKPGQSPKLLIYKVSNRFSGVPDRFSGSGSGTDFTLKISRVETEDLGVYFCSQSTHVPWTFGGGTKLEIK
modifications: CDR H2 N-glycosylated at the Asn-Ser-Thr sequence
notes: Captured by goat anti-mouse Fc in BIAcore (mouse Fc); also called mouse antibody 266
**Q.** Which kon (β Amyloid peptide 1-40 [8]) does the source give for B2 here?
**A.** 230000 M⁻¹ s⁻¹

**Q.** What about the Kd (β Amyloid peptide 1-40 [9]) of the same binder?
**A.** 0.0765 nM

**Q.** And the kon (β Amyloid peptide 1-40 [10])?
**A.** 186000 M⁻¹ s⁻¹

**Q.** And the Kd (β Amyloid peptide 1-40 [3])?
**A.** 0.0765 nM

**Q.** And the koff (β Amyloid peptide 1-40 [3])?
**A.** 6.73e-06 s⁻¹

**Q.** What about the kon (β Amyloid peptide 1-40 [3]) of the same binder?
**A.** 88000 M⁻¹ s⁻¹

**Q.** And the “Fold increase in affinity” value (β Amyloid peptide 1-40 [11])?
**A.** 1 fold

**Q.** And the Kd (β Amyloid peptide 1-40 [12])?
**A.** 0.0675 nM and 0.0854 nM

**Q.** What about the kon (β Amyloid peptide 1-40 [13]) of the same binder?
**A.** 157000 M⁻¹ s⁻¹

**Q.** What about the kon (β Amyloid peptide 1-40 [14]) of the same binder?
**A.** 240000 M⁻¹ s⁻¹

**Q.** What about the “Fold increase in kon” value (β Amyloid peptide 1-40 [15]) of the same binder?
**A.** 1 fold

**Q.** What about the kon (β Amyloid peptide 1-40 [16]) of the same binder?
**A.** 210000 M⁻¹ s⁻¹ and 240000 M⁻¹ s⁻¹

**Q.** What about the kon (β Amyloid peptide 1-40 [17]) of the same binder?
**A.** 130000 M⁻¹ s⁻¹

**Q.** And the kon (β Amyloid peptide 1-40 [18])?
**A.** 154000 M⁻¹ s⁻¹

**Q.** And the “Fold Increase (kon)” value (β Amyloid peptide 1-40 [19])?
**A.** 1 fold

**Q.** And the kon (β Amyloid peptide 1-40 [20])?
**A.** 129000 M⁻¹ s⁻¹ and 127000 M⁻¹ s⁻¹ and 88000 M⁻¹ s⁻¹
